B1: Llama-derived single domain antibody nano14 (VHH)
VHH: DVQLQESGGGLVQPGGSLRLSCAASGFTFDDFGMSWVRQAPGKGLEWVSSITWNGGSTYYADSVKGRFTISRDNAKNTVYLQMNSLKPEDTAIYYCNADHPQGYWGQGTQVTVSS
B2: Llama-derived single domain antibody nano15 (VHH)
VHH: DVQLQESGGGLVQPGGSLRLSCAASGFTFNSYAMSWVRQAPGKGLEWVSTINSGGGRTGYADSVKGRFTISRDNAKNTLYLQMNSLKPEDTAIYYCNADHPQGYWGQGTQVTVSS

How the values were obtained:
[1] = biological target: T1, human ANG1 (RD,923-AN) (human, UniProt Q15389 20-498, limits assumed); experiment: ELISA, plate coated with human ANG1, OD450
T1 sequence (looked up): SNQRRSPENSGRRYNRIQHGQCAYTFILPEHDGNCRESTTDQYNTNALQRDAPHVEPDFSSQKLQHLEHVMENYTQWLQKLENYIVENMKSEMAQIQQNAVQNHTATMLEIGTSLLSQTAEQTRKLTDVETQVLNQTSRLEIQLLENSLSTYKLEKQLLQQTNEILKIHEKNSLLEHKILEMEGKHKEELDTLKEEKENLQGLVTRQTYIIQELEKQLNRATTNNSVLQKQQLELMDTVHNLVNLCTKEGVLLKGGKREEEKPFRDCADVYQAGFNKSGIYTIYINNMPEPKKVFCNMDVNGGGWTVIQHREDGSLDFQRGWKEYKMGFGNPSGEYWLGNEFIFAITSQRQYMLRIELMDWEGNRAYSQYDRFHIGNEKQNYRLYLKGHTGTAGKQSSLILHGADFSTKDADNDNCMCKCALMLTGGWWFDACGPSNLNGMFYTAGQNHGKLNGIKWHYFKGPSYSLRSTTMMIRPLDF
Protocol: (§1) The plate was coated with human ANG1 (RD,923-AN) at a concentration of 1 ng/μl, 100 μl per well overnight at 4° C. The supernatant was removed and 250 μl 5% skimmed milk powder was added for blocking at 37° C. for 1 h. The plate was washed with a washing machine for 3 times, and 100 μl 1:1 diluted phage supernatant was added and incubated at 37° C. for 1 h. The plate was washed with a washing machine for 3 times, and 100 μl 1:10000 diluted M13-HRP was added to each well and incubated at 37° C. for 1 h. The plate was washed with a washing machine for 3 times, and 100 μl TMB was added to each well for color development. After 5-10 min, 100 μl 1 M H₂SO₄ was added to each well to stop the color development, and the OD450 value was measured with a microplate reader.

[2] = biological target: T2, human ANG2 with human Fc tag (huANG2-Fc) (human, biotin label (Dojindo kit LK03, position not stated) in Test Examples 3 and 4; unlabelled in Test Example 5); experiment: competition ELISA: Tie2-Fc coated, biotin-huANG2-Fc 0.15 ug/ml premixed with antibody; blocking of ANG2 binding to Tie2
T2 construct: It starts at YNNFRK, without a signal peptide; also called bio-huANG2-Fc; human Ang2-Fc
Protocol: Specific methods: the ELISA plate was coated with Tie2-Fc (SEQ ID NO: 2, 3 μg/ml dissolved in PBS, 100 μl/well) overnight at 4° C. and the coating solution was removed, 5% skimmed milk blocking solution diluted with PBS was added at 200 μl/well and incubated in a 37° C. incubator for 2 h for blocking. After the blocking was completed, the blocking solution was discarded and the plate was washed with PBST buffer (PBS containing 0.05% tween-20, pH 7.4) for 5 times. […] The solution was mixed well and then incubated at 37° C. for 15 min, added to the ELISA plate and incubated at 37° C. for 1 h. After the incubation was completed, the reaction solution in the ELISA plate was discarded and the plate was washed 5 times with PB ST. Then 1:4000 diluted streptavidin-peroxidase polymer (Sigma, 52438-250UG) was added at 100 μl/well and incubated at 37° C. for 1 h. After washing the plate 5 times with PBST, 100 μl/well TMB chromogenic substrate (KPL, 52-00-03) was added and incubated at room temperature for 3-10 min, and 1 M H₂SO₄ was added at 100 μl/well to stop the reaction.

[3] = biological target: T3, biotin-hAng2-His (sinobiological, 10691-H07H) (human, UniProt O15123 19-496, biotin label, position not stated); experiment: ELISA, biotin-hAng2-His captured on streptavidin plate, OD450
T3 construct: Bought reagent; also called Human ANG2-his; human ANG2
T3 sequence (looked up): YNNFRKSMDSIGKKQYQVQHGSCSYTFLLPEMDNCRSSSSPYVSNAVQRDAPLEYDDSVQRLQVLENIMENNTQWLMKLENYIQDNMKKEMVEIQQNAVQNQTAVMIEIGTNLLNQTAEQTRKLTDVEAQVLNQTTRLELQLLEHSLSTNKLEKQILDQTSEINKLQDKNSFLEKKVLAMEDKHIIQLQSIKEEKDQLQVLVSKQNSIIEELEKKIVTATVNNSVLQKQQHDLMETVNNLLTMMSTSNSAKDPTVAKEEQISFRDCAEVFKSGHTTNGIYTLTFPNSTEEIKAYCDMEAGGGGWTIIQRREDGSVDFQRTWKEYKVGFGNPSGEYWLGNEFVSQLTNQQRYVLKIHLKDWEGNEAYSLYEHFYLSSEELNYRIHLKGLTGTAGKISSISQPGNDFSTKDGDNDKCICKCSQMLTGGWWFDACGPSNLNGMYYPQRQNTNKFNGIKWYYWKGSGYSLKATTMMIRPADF
Protocol: as §1, with “streptavidin (abcam, ab123480)” for “human ANG1 (RD,923-AN)”, “C., and then the” for “C. The”, “removed.” for “removed and”, “blocking at 37° C. for 1 h, and the plate was washed with a washing machine for 3 times. 0.5 ng/μl biotin-hAng2-His (sinobiological, 10691-H07H) was added and incubated” for “blocking”, “anti-M13-HRP (GE, 27-9421-01)” for “M13-HRP”

| Binder | binding result [1] | IC50 [2] | EC50 (read off the curve) [3] |
| --- | --- | --- | --- |
| B1 | no binding (tested: 100 nM) | 0.0393 nM | ~0.08 nM |
| B2 | no binding (tested: 100 nM) | 0.0281 nM | ~0.06 nM |

From patent US20220185875A1 (JIANGSU HENGRUI MEDICINE, published 2022)
